One block for each binder: values may come before it.
Assays:
[1] = biological target: T1, CA6, tumor-associated MUC1-sialoglycotope (human, UniProt P15941 24-1255, carries the CA6 sialoglycotope (sialylated glycan epitope); sites not stated); assay: flow cytometry (FACS) on WISH cells (CA6+), normalized fluorescence, without DOTA
T1 construct: whole, on cells; In the assays it is presented on WISH cells (CA6+); A2780 cells are CA6 negative; also called CA6 antigen; human CA6 tumor antigen

[2] = biological target: T1, CA6, tumor-associated …; assay: FACS binding assay (Free), Kd app; unconjugated (Free) B-Fab, not DOTA conjugate
[3] = biological target: T1, CA6, tumor-associated …; assay: flow cytometry on WISH (CA6+) cells (method from Example 4)
[4] = biological target: T1, CA6, tumor-associated …; assay: flow cytometry (FACS) on WISH cells (CA6+)
Experimental: The B-Fab 1153 is a DS6-based engineered antibody-like binding protein containing a both L1 and L2 linkers as (G45)₂ and not containing a C-terminal 6x-His tag. Since this protein was lacking a His tag the protein was purified by […], Kappa-select and SEC. The in vitro binding solution was prepared at 1.6 mg/ml in PBS and binding affinity was characterized using flow cytometry in the WISH CA6+ cell line (FIG. 3C and FIG. 3D).

[5] = biological target: T1, CA6, tumor-associated …; assay: FACS binding assay (DOTA Conjugate), Kd app
[6] = biological target: T1, CA6, tumor-associated …; assay: flow cytometry (FACS) on WISH cells (CA6+), normalized fluorescence, with DOTA
[7] = biological target: T1, CA6, tumor-associated …; assay: FACS binding assay (Free), Kd app

T1 sequence (P15941 24-1255): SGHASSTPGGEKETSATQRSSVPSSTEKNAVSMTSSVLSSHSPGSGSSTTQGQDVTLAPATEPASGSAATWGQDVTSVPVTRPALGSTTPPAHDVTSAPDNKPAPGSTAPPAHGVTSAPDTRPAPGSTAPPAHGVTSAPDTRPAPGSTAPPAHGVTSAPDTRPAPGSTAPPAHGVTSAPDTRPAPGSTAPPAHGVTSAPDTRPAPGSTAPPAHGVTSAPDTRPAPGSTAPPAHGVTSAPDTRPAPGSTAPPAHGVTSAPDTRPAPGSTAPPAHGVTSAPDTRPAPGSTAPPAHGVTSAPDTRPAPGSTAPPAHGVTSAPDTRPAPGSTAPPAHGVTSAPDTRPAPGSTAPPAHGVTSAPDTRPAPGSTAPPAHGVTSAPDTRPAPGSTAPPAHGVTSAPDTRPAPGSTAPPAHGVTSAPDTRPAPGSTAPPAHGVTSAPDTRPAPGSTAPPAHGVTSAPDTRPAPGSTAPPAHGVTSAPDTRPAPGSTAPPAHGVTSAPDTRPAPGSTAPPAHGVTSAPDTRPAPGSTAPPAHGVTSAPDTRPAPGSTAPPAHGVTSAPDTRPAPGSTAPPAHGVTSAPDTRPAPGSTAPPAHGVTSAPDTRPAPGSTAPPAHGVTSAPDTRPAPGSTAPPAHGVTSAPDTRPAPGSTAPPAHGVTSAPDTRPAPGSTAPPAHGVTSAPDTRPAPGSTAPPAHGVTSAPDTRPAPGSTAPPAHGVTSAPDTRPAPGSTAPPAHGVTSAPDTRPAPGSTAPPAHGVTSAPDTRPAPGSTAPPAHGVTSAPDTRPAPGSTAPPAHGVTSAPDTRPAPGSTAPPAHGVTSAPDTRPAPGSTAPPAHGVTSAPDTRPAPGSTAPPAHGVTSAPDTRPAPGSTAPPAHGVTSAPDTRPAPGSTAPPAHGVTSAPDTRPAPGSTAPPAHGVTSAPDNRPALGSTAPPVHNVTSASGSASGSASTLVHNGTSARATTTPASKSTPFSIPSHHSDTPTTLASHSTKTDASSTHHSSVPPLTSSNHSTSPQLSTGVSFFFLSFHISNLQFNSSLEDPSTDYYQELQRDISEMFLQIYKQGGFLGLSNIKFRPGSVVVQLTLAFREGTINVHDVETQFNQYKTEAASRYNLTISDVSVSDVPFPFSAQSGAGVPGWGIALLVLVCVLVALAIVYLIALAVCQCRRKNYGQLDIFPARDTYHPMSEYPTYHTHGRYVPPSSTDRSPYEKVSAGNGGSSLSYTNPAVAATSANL

EC50 (read off the curve) [1]: ~2 nM
Kd [1]: 2.2 nM
B1: DS6 B-Fab antibody-like binding protein (variant not named) (Fab)
light: EIVLTQSPATMSASPGERVTITCSAHSSVSFMHWFQQKPGTSPKLWIYSTSSLASGVPARFGGSGSGTSYSLTISSMEAEDAATYYCQQRSSFPLTFGAGTKLELKGGGGSGGGGSEIVLTQSPATMSASPGERVTITCSAHSSVSFMHWFQQKPGTSPKLWIYSTSSLASGVPARFGGSGSGTSYSLTISSMEAEDAATYYCQQRSSFPLTFGAGTKLELKRTVAAPSVFIFPPSDEQLKSGTASVVCLLNNFYPREAKVQWKVDNALQSGNSQESVTEQDSKDSTYSLSSTLTLSKADYEKHKVYACEVTHQGLSSPVTKSFNRGEC
heavy: EAQLVQSGAEVVKPGASVKMSCKASGYTFTSYNMHWVKQTPGQGLEWIGYIYPGNGATNYNQKFQGKATLTADPSSSTAYMQISSLTSEDSAVYFCARGDSVPFAYWGQGTLVTVSAGGGGSGGGGSEAQLVQSGAEVVKPGASVKMSCKASGYTFTSYNMHWVKQTPGQGLEWIGYIYPGNGATNYNQKFQGKATLTADPSSSTAYMQISSLTSEDSAVYFCARGDSVPFAYWGQGTLVTVSAASTKGPSVFPLAPSSKSTSGGTAALGCLVKDYFPEPVTVSWNSGALTSGVHTFPAVLQSSGLYSLSSVVTVPSSSLGTQTYICNVNHKPSNTKVDKKVEPKSCDKTHT
notes: also called B-Fab DS6 based engineered antibody

Kd [2]: 4 nM
Kd [3]: 2.3 nM
EC50 (read off the curve) [4]: ~2 nM
B2: B-Fab 1153 (Fab)
light: EIVLTQSPATMSASPGERVTITCSAHSSVSFMHWFQQKPGTSPKLWIYSTSSLASGVPARFGGSGSGTSYSLTISSMEAEDAATYYCQQRSSFPLTFGAGTKLELKGGGGSGGGGSEIVLTQSPATMSASPGERVTITCSAHSSVSFMHWFQQKPGTSPKLWIYSTSSLASGVPARFGGSGSGTSYSLTISSMEAEDAATYYCQQRSSFPLTFGAGTKLELKRTVAAPSVFIFPPSDEQLKSGTASVVCLLNNFYPREAKVQWKVDNALQSGNSQESVTEQDSKDSTYSLSSTLTLSKADYEKHKVYACEVTHQGLSSPVTKSFNRGEC
heavy: EAQLVQSGAEVVKPGASVKMSCKASGYTFTSYNMHWVKQTPGQGLEWIGYIYPGNGATNYNQKFQGKATLTADPSSSTAYMQISSLTSEDSAVYFCARGDSVPFAYWGQGTLVTVSAGGGGSGGGGSEAQLVQSGAEVVKPGASVKMSCKASGYTFTSYNMHWVKQTPGQGLEWIGYIYPGNGATNYNQKFQGKATLTADPSSSTAYMQISSLTSEDSAVYFCARGDSVPFAYWGQGTLVTVSAASTKGPSVFPLAPSSKSTSGGTAALGCLVKDYFPEPVTVSWNSGALTSGVHTFPAVLQSSGLYSLSSVVTVPSSSLGTQTYICNVNHKPSNTKVDKKVEPKSCDKTHT
notes: also called B-Fab (G4S)2 linker; B-Fab (G4S)2 linker without C-terminal 6xHis tag

Kd [5]: 7.4 nM
B3: DOTA conjugate of B-Fab 1153 (Fab)
light: EIVLTQSPATMSASPGERVTITCSAHSSVSFMHWFQQKPGTSPKLWIYSTSSLASGVPARFGGSGSGTSYSLTISSMEAEDAATYYCQQRSSFPLTFGAGTKLELKGGGGSGGGGSEIVLTQSPATMSASPGERVTITCSAHSSVSFMHWFQQKPGTSPKLWIYSTSSLASGVPARFGGSGSGTSYSLTISSMEAEDAATYYCQQRSSFPLTFGAGTKLELKRTVAAPSVFIFPPSDEQLKSGTASVVCLLNNFYPREAKVQWKVDNALQSGNSQESVTEQDSKDSTYSLSSTLTLSKADYEKHKVYACEVTHQGLSSPVTKSFNRGEC
heavy: EAQLVQSGAEVVKPGASVKMSCKASGYTFTSYNMHWVKQTPGQGLEWIGYIYPGNGATNYNQKFQGKATLTADPSSSTAYMQISSLTSEDSAVYFCARGDSVPFAYWGQGTLVTVSAGGGGSGGGGSEAQLVQSGAEVVKPGASVKMSCKASGYTFTSYNMHWVKQTPGQGLEWIGYIYPGNGATNYNQKFQGKATLTADPSSSTAYMQISSLTSEDSAVYFCARGDSVPFAYWGQGTLVTVSAASTKGPSVFPLAPSSKSTSGGTAALGCLVKDYFPEPVTVSWNSGALTSGVHTFPAVLQSSGLYSLSSVVTVPSSSLGTQTYICNVNHKPSNTKVDKKVEPKSCDKTHT
modifications: DOTA chelator conjugated, sites not stated (1.5-2.5 DOTA/fragment)
notes: also called B-Fab (DOTA Conjugate)

Kd [3]: 3.4 nM
B4: B-Fab 1151 (Fab)
light: EIVLTQSPATMSASPGERVTITCSAHSSVSFMHWFQQKPGTSPKLWIYSTSSLASGVPARFGGSGSGTSYSLTISSMEAEDAATYYCQQRSSFPLTFGAGTKLELKGGGGSGGGGSEIVLTQSPATMSASPGERVTITCSAHSSVSFMHWFQQKPGTSPKLWIYSTSSLASGVPARFGGSGSGTSYSLTISSMEAEDAATYYCQQRSSFPLTFGAGTKLELKRTVAAPSVFIFPPSDEQLKSGTASVVCLLNNFYPREAKVQWKVDNALQSGNSQESVTEQDSKDSTYSLSSTLTLSKADYEKHKVYACEVTHQGLSSPVTKSFNRGEC
heavy: EAQLVQSGAEVVKPGASVKMSCKASGYTFTSYNMHWVKQTPGQGLEWIGYIYPGNGATNYNQKFQGKATLTADPSSSTAYMQISSLTSEDSAVYFCARGDSVPFAYWGQGTLVTVSAGGGGSGGGGSEAQLVQSGAEVVKPGASVKMSCKASGYTFTSYNMHWVKQTPGQGLEWIGYIYPGNGATNYNQKFQGKATLTADPSSSTAYMQISSLTSEDSAVYFCARGDSVPFAYWGQGTLVTVSAASTKGPSVFPLAPSSKSTSGGTAALGCLVKDYFPEPVTVSWNSGALTSGVHTFPAVLQSSGLYSLSSVVTVPSSSLGTQTYICNVNHKPSNTKVDKKVEPKSCDKTHT
notes: It also carries a C-terminal 6x-His tag; also called B-Fab (G4S)2 linker and C-terminal 6x-His tag

EC50 (read off the curve) [6]: ~6 nM
Kd [6]: 6.6 nM
B5: DOTA-DS6 conjugated antibody (B-Fab with DOTA, variant not named) (Fab)
light: EIVLTQSPATMSASPGERVTITCSAHSSVSFMHWFQQKPGTSPKLWIYSTSSLASGVPARFGGSGSGTSYSLTISSMEAEDAATYYCQQRSSFPLTFGAGTKLELKGGGGSGGGGSEIVLTQSPATMSASPGERVTITCSAHSSVSFMHWFQQKPGTSPKLWIYSTSSLASGVPARFGGSGSGTSYSLTISSMEAEDAATYYCQQRSSFPLTFGAGTKLELKRTVAAPSVFIFPPSDEQLKSGTASVVCLLNNFYPREAKVQWKVDNALQSGNSQESVTEQDSKDSTYSLSSTLTLSKADYEKHKVYACEVTHQGLSSPVTKSFNRGEC
heavy: EAQLVQSGAEVVKPGASVKMSCKASGYTFTSYNMHWVKQTPGQGLEWIGYIYPGNGATNYNQKFQGKATLTADPSSSTAYMQISSLTSEDSAVYFCARGDSVPFAYWGQGTLVTVSAGGGGSGGGGSEAQLVQSGAEVVKPGASVKMSCKASGYTFTSYNMHWVKQTPGQGLEWIGYIYPGNGATNYNQKFQGKATLTADPSSSTAYMQISSLTSEDSAVYFCARGDSVPFAYWGQGTLVTVSAASTKGPSVFPLAPSSKSTSGGTAALGCLVKDYFPEPVTVSWNSGALTSGVHTFPAVLQSSGLYSLSSVVTVPSSSLGTQTYICNVNHKPSNTKVDKKVEPKSCDKTHT
modifications: DOTA chelator conjugated, sites not stated

Kd [7]: 10 nM
B6: anti-CA6 diabody of SEQ ID NO: 12 fused to a tag of SEQ ID NO: 14 (other)
chain: EIVLTQSPATMSASPGERVTITCSAHSSVSFMHWFQQKPGTSPKLWIYSTSSLASGVPARFGGSGSGTSYSLTISSMEAEDAATYYCQQRSSFPLTFGAGTKLELKGGGSGGGGEAQLVQSGAEVVKPGASVKMSCKASGYTFTSYNMHWVKQTPGQGLEWIGYIYPGNGATNYNQKFQGKATLTADPSSSTAYMQISSLTSEDSAVYFCARGDSVPFAYWGQGTLVTVSAGGCGGHHHHHH

Kd [5]: 7.5 nM
B7: DOTA conjugate of the anti-CA6 diabody (SEQ ID NO: 12 fused to SEQ ID NO: 14) (other)
chain: EIVLTQSPATMSASPGERVTITCSAHSSVSFMHWFQQKPGTSPKLWIYSTSSLASGVPARFGGSGSGTSYSLTISSMEAEDAATYYCQQRSSFPLTFGAGTKLELKGGGSGGGGEAQLVQSGAEVVKPGASVKMSCKASGYTFTSYNMHWVKQTPGQGLEWIGYIYPGNGATNYNQKFQGKATLTADPSSSTAYMQISSLTSEDSAVYFCARGDSVPFAYWGQGTLVTVSAGGCGGHHHHHH
modifications: DOTA chelator conjugated, sites not stated
notes: Homodimeric diabody conjugated to DOTA; also called Diabody (DOTA Conjugate)

Kd [3]: 88 nM
B8: B-Fab 1152 (Fab)
light: EIVLTQSPATMSASPGERVTITCSAHSSVSFMHWFQQKPGTSPKLWIYSTSSLASGVPARFGGSGSGTSYSLTISSMEAEDAATYYCQQRSSFPLTFGAGTKLELKGGGGSEIVLTQSPATMSASPGERVTITCSAHSSVSFMHWFQQKPGTSPKLWIYSTSSLASGVPARFGGSGSGTSYSLTISSMEAEDAATYYCQQRSSFPLTFGAGTKLELKRTVAAPSVFIFPPSDEQLKSGTASVVCLLNNFYPREAKVQWKVDNALQSGNSQESVTEQDSKDSTYSLSSTLTLSKADYEKHKVYACEVTHQGLSSPVTKSFNRGEC
heavy: EAQLVQSGAEVVKPGASVKMSCKASGYTFTSYNMHWVKQTPGQGLEWIGYIYPGNGATNYNQKFQGKATLTADPSSSTAYMQISSLTSEDSAVYFCARGDSVPFAYWGQGTLVTVSAGGGGSEAQLVQSGAEVVKPGASVKMSCKASGYTFTSYNMHWVKQTPGQGLEWIGYIYPGNGATNYNQKFQGKATLTADPSSSTAYMQISSLTSEDSAVYFCARGDSVPFAYWGQGTLVTVSAASTKGPSVFPLAPSSKSTSGGTAALGCLVKDYFPEPVTVSWNSGALTSGVHTFPAVLQSSGLYSLSSVVTVPSSSLGTQTYICNVNHKPSNTKVDKKVEPKSCDKTHT
notes: also called B-Fab G4S linker and C-terminal 6x-His tag; B-Fab DS6 based engineered antibody with GGGGS (G4S) linker and C-terminal 6x-His tag

From patent US20140256916A1 (Sanofi, published 2014)
